The subject of data set [1] is T1, cyclic peptide P2, c(rLSKDK).
T1 sequence: RLSKDK

The test system of data set [2] is T2, cyclic peptide P1, c(RLsKDK), cyclo(Arg-Leu-{β-Ser}-Lys-Asp-Lys).
T2 sequence: RLSKDK

The test system of data set [3] is T3, cyclic peptide P3, c(RlSKDK).
T3 sequence: RLSKDK

As for purified recombinant ADAM8, the “ADAM8 proteolytic activity, fluorogenic CD23 peptide, peptides at 100 nM” value in data set [1] was “Cyclic peptides P2 and P3 showed inhibition of ADAM8 proteolytic activity”; in data set [2], “cyclic peptide P1 showed the most marked inhibition”; in data set [3], “Cyclic peptides P2 and P3 showed inhibition of ADAM8 proteolytic activity”.

The values above are taken from patent US20170107258.
